Numbering of substitutions follows the chain as printed. Names may count otherwise.
Tests used:
[1] = biological target: the molecule itself; assay: SEC-MALS; Shodex PROTEIN KW-802.5 column, 200 mM NaCl, 20 mM Tris-Cl pH 7.5, protein at 1 mg/mL, room temperature (23°C); self-association, dimer
[2] = biological target: the molecule itself; assay: SEC-MALS; data not shown; 'monodispersed dimers, as observed with wild-type'; method taken from the wild-type experiment
[3] = biological target: the molecule itself; assay: cross-linking; spontaneous disulfide cross-linking of introduced cysteines in purified KbC in TBS7.5 (200 mM NaCl, 10 mM Tris pH 7.5, 5 mM ß-mercaptoethanol); SDS-PAGE in reducing (250 mM ß-mercaptoethanol) and oxidizing conditions

B1: ClC-Kb C-terminal domain (domain or fragment, human, UniProt P51801 538-684, looked up)
chain: RNIGSHRVRVEHFMNHSITTLAKDMPLEEVVKVVTSTDVAKYPLVESTESQILVGIVRRAQLVQALKAEPPSWAPGHQQCLQDILAAGCPTEPVTLKLSPETSLHEAHNLFELLNLHSLFVTSRGRAVGCVSWVEMKKAISNLTNPP
notes: ClC-Kb chloride channel, human, C-terminal cytoplasmic domain, amino acids 538-684; read here as KbC following MBP; MBP was removed with Factor Xa and washed away on the cation-exchange column; also called ClC-Kb cytoplasmic domain; ClC-Kb C-terminal cytoplasmic domain; source: E. coli, purified (amylose column, Factor Xa digestion, cation exchange); not shown: MBP, N-terminal, cleaved
[1]
  stoichiometry N: 2

B2: ClC-Kb C-terminal domain double mutant L603C-H645C (domain or fragment, human, UniProt P51801 538-684, looked up)
chain: B1 chain with L66C, H108C
notes: ClC-Kb chloride channel, human, C-terminal cytoplasmic domain, amino acids 538-684, L603C and H645C; also called 603-645 cysteine double mutant; source: E. coli, purified (amylose column, Factor Xa digestion, cation exchange); not shown: MBP, N-terminal, cleaved
[2]
  stoichiometry N: 2

B3: ClC-Kb C-terminal domain with the L650C mutation (domain or fragment, human, UniProt P51801 538-684, looked up)
chain: B1 chain with L113C
notes: ClC-Kb chloride channel, human, C-terminal cytoplasmic domain, amino acids 538-684, L650C; also called ClC-Kb-L650C; L650C mutant; source: E. coli, purified (amylose column, Factor Xa digestion, cation exchange); not shown: MBP, N-terminal, cleaved
[3]
  binding result: binds

B4: ClC-Kb C-terminal domain double mutant K604C-A644C (domain or fragment, human, UniProt P51801 538-684, looked up)
chain: B1 chain with K67C, A107C
notes: ClC-Kb chloride channel, human, C-terminal cytoplasmic domain, amino acids 538-684, K604C and A644C; also called 604-644 cysteine double mutant; source: E. coli, purified (amylose column, Factor Xa digestion, cation exchange); not shown: MBP, N-terminal, cleaved
[2]
  stoichiometry N: 2

Source: paper PMC2447174, “A Cytoplasmic Domain Mutation in ClC-Kb Affects Long-Distance Communication Across the Membrane” (PLoS ONE, 2008)
